Laboratory results published in patent US7629135B2, “Toll-like receptor agonists and antagonists and methods of use thereof” (The Board of Trustees of the University of Illinois, priority 2006, dated 2009).

Legend:
[1] = molecular target: T1, TLR2 (Homo sapiens, UniProt O60603); assay: NF-κB luciferase reporter assay in TLR2-HeLa cells; assay type: cell-based
T1 construct: host or cells: HeLa
Description: (§1) To determine whether TLR2 is a receptor for SAA, a TLR2-expressing cell line was prepared in HeLa cells, which contain very little endogenous TLR2 transcript (FIG. 6A, upper panel). […] TLR2 is a class I transmembrane protein that contains an extracellular ligand binding domain (ectodomain), a transmembrane domain and a cytoplasmic domain consisting of the Toll/IL-1/receptor/Resistance (TIR) motif. Studies have shown that TLR2 forms heterodimers with TLR1 and TLR6 (Ozinsky et al., 2000), which display different preference for TLR2 ligands (Hoebe et al., 2005; Takeuchi et al., 2002). The C-terminal TIR domain is conserved among TLRs and responsible for TLR signaling (O'Neill and Bowie, 2007; Takeda and Akira, 2004). To assess the relative contributions of TLRs to SAA signaling, TLR1, TLR2, TLR4 and TLR6 were overexpressed in the TLR2-HeLa cells, and their effects on SAA-induced NF-κB luciferase reporter activity were determined. […] In addition, the TIR domain deletion mutants (ΔTIR) of these receptors were expressed, which are negative regulators of TLR signaling.
(§2) Methods for the generation of TLR2-HeLa stable cell line: HeLa cells stably transfected with human TLR2 gene were generated by transfecting HeLa cells with the expression construct pUNO-hTLR2 (InvivoGen, San Diego, Calif.; GenBank accession number for human TLR2 cDNA is NM_003264) and selected with Blasticidin at concentration of 20 μg/ml for 2 weeks. The control HeLa cells were generated at the same time by transfecting with empty pUNO vector. Cells were maintained in DMEM supplemented with 10% heat-inactivated FB S, 2 mM L-glutamine, 100 IU/ml penicillin, and 50 μg/ml streptomycin. Expression of TLR2 was confirmed using an anti-TLR2 antibody (eBioscience) and FTTC-conjugated anti-mouse antibody, on a FACSCalibur flow cytometer (Becton Dickinson). The TLR2-HeLa and control cells were then co-transfected with 5xNF-κB reporter plasmids (pNF-κB-Luc, Stratagene, Cedar Creek, Tex., catalog no. 219077) and empty SFFV vector bearing a neomycin resistant gene. The TLR2-HeLa/NF-κB reporting cells were obtained after selecting with G418 at concentration of […] for 2-3 weeks. Cells (5′10^5/ml) were grown in DMEM supplemented with 10% heat-inactivated FBS, 2 mM L-glutamine, 100 IU/ml penicillin, and […] streptomycin.
(§3) Methods for using HeLa cells in reporter assay: Mock-transfected HeLa and TLR2-HeLa cells were maintained at ˜5×10^5 cells/well in six-well plates, transfected with plasmid expression vectors coding for a 3×κB-directed luciferase reporter, pCMVβ vector DNA (Promega) and/or other expression constructs as indicated. Total DNA concentration was adjusted to 1 μg/sample by addition of empty vector DNA. Transient transfection was performed using LipofectAmine Plus reagent (Invitrogen). […]

[2] = test system: TLR2; assay: NF-κB luciferase reporter assay in TLR2-HeLa cells; assay type: cell-based, human; settings: TLR2-HeLa cells, p<0.01
Description: as §1, §2, §3

T1 sequence (O60603 21-784): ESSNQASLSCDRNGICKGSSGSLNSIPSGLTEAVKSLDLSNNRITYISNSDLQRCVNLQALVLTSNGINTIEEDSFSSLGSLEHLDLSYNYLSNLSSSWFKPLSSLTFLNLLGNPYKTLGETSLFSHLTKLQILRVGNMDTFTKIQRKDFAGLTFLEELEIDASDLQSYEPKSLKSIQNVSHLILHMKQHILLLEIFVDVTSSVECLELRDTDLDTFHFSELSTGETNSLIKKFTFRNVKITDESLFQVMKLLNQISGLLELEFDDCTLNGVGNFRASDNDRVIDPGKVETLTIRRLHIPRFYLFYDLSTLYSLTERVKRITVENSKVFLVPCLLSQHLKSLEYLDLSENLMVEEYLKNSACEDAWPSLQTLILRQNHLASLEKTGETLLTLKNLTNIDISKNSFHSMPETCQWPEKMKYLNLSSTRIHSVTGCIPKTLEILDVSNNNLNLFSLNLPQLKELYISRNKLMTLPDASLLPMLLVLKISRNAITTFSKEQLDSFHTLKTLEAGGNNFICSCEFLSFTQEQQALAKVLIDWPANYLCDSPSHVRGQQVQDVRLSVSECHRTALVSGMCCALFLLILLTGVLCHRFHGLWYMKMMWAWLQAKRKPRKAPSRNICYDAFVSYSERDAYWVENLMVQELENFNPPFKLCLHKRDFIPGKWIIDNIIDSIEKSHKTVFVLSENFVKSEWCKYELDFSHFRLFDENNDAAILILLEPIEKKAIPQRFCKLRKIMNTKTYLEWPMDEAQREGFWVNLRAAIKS
T1 sequence (Q15399 25-786 partner): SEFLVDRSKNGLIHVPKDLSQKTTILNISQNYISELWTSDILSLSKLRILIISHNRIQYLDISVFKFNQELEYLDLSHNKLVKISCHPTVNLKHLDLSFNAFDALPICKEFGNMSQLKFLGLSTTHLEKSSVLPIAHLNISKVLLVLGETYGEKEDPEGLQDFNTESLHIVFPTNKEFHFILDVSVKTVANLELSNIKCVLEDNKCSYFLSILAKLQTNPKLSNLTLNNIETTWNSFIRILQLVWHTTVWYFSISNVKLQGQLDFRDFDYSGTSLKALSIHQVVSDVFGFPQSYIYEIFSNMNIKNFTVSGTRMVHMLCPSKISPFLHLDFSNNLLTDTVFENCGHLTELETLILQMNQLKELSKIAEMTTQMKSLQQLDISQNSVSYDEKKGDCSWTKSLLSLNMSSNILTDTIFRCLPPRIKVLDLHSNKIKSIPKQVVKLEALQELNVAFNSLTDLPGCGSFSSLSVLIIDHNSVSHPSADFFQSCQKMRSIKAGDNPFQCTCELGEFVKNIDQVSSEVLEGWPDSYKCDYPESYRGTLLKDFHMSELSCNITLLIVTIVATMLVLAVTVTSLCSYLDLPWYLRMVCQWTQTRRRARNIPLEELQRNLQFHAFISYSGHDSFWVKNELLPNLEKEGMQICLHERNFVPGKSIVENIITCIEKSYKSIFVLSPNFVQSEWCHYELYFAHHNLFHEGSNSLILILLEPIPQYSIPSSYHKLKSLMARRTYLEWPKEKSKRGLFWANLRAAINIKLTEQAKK

B1: SAA: Recombinant human SAA purchased from PeproTech; major acute-phase protein of 104 amino acids (protein, UniProt P0DJI8 19-122, looked up)
Serum amyloid A-1 protein: RSFFSFLGEAFDGARDMWRAYSDMREANYIGSDKYFHARGNYDAAKRGPGGAWAAEVITDARENIQRFFGHGAEDSLADQAANEWGRSGKDPNHFRPAGLPEKY
For B1, the NF-κB luciferase activity ([1]; SAA-stimulated TLR2-HeLa vs mock-transfected HeLa cells, p<0.01) was “significantly increased NF-κB luciferase activity”, the “SAA-induced NF-κB luciferase activity with exogenous expression of TLR1” value ([1]; TLR2-HeLa cells overexpressing TLR1) was “potentiated SAA-induced NF-κB luciferase activity” and the “SAA-induced NF-κB luciferase activity with ΔTIR mutants of TLR1, TLR2 and TLR6” value [2] was “significant inhibition”.
